The values below come from paper PMC4006364 (Nature chemical biology, 2014).

Read-outs that look alike come from different tables or passages of the source.

Data set [1] has as its target T1, AfXPB (Archaeoglobus fulgidus, UniProt O29889).
T1 sequence (O29889 1-452): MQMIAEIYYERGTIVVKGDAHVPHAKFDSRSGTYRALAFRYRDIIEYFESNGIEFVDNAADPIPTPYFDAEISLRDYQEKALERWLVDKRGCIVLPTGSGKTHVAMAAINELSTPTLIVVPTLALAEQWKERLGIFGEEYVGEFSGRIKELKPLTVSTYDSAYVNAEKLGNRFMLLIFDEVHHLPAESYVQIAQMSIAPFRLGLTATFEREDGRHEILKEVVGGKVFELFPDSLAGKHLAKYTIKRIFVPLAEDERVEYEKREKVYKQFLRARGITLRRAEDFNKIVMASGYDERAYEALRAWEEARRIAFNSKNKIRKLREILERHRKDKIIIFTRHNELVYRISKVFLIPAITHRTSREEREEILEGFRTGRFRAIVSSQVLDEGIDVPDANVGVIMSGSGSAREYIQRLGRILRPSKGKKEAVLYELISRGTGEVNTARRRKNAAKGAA
In words: gel mobility shift, inhibition of […]-G4 DNA binding.

The target in data set [2] is T1, AfXPB. The description is as above. The following applies: no Mg2+, pH 7.9, 50 °C; inhibits G4 DNA binding.
The target of data set [3] is SaXPD (Sulfolobus acidocaldarius, UniProt Q4JC68). The following applies: 1 mM Mg-ATP, pH 6.5, 45 °C.
Data set [4] deals with T2, XPB (AfXPB) WT (Archaeoglobus fulgidus, UniProt O29889 1-452).
T2 sequence: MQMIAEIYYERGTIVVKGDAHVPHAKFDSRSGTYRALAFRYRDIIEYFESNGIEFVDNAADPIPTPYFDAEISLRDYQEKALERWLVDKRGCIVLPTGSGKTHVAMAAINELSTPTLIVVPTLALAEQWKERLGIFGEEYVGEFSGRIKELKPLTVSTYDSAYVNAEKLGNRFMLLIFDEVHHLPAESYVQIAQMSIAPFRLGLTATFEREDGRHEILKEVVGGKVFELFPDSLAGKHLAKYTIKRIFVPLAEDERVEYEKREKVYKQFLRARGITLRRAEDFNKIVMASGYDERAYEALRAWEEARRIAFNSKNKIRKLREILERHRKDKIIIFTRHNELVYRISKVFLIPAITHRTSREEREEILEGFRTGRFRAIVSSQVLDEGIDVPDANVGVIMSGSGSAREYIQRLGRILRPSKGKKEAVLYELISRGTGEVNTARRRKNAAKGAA
In words: EMSA.

Data set [5] concerns the target T3, AfXPB K101R (Archaeoglobus fulgidus, UniProt O29889 1-452, K101R).
T3 sequence: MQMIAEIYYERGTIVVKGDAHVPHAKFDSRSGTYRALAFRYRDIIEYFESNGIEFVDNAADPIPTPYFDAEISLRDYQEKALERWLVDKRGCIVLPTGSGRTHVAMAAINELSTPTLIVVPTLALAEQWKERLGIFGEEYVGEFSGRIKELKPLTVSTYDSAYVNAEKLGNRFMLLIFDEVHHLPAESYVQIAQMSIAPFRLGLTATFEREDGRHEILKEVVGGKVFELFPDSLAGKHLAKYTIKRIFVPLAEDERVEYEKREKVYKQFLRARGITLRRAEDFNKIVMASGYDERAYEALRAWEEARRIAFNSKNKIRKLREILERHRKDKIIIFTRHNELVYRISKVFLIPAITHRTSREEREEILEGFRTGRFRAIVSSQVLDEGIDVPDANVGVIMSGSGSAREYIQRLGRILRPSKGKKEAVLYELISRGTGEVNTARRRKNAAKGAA
Put plainly: EMSA.

Data set [6] concerns the target T2, XPB (AfXPB) WT. In words: EMSA. The source holds these as a separate data set.
Data set [7] deals with T4, XPD (SaXPD) (Sulfolobus acidocaldarius, UniProt Q4JC68 1-551).
T4 sequence: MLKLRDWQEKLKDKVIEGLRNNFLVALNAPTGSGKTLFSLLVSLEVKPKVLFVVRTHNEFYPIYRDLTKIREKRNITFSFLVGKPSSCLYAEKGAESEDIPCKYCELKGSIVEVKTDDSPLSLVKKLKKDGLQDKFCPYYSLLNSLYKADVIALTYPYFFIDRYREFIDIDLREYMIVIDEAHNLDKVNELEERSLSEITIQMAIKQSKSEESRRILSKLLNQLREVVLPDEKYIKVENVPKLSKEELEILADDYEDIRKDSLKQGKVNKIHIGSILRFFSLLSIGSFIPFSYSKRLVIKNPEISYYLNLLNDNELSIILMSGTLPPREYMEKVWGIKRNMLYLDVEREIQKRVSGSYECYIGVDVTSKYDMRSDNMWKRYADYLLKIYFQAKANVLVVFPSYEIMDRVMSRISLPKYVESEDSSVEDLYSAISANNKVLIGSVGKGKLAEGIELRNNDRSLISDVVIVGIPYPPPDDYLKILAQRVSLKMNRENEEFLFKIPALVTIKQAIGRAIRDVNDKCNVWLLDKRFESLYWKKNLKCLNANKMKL
Put plainly: EMSA.

With `Nc1ncnc2c1ncn2[C@@H]1O[C@H](COP(=O)(O)OP(=O)(O)O)[C@@H](O)[C@H]1O` [ADP], in data set [1], the Ki was around 4 mM. For `Nc1ncnc2c1ncn2[C@@H]1O[C@H](COP(=O)(O)OP(=O)(O)OP(O)(O)=S)[C@@H](O)[C@H]1O` [ATP-γS], in data set [2], the “inhibition of G4 DNA binding” value is given as “ATP-γS similarly inhibited G4 DNA binding, so inhibition did not depend upon ATP hydrolysis”. `Nc1ncnc2c1ncn2[C@@H]1O[C@H](COP(=O)(O)OP(=O)(O)OP(=O)(O)O)[C@@H](O)[C@H]1O` [ATP]: the “32P-G4 DNA unwinding assay, native gel” value in data set [3] was “robust G4 DNA unwinding activity in the presence of ATP but not ATP-γS”.

B1: dsDNA (dsDNA)
DNA 1: AGAATGGAGCAGGTGCGCTGCGAGCAGTG
DNA 2: CACTGCTCGCAGCGCACCTGCTCCATTCT
As for B1, the binding result in data set [4] is given as “no binding”. With TGGACCAGACCTAGCAGCTATGGGGGAGCTGGGGAAGGTGGGAATGTGA (structured_DNA) [G4 DNA (TP oligonucleotide)], the binding result is listed as “no binding” in data set [5], “binds” in data set [6] and “binds” in data set [7]. For the molecule AGAATGGAGCAGGTGCGCTGCGAGCAGTG (ssDNA) [ssDNA], the binding result in data set [4] was “no binding”.
